What was measured:
[1] = target: T1, KIR2DS1 (UniProt Q14954 22-304, limits assumed); assay: HEK293 cell microarray
T1 construct: whole, on cells
Procedure: (§1) Replicate microarray slides expressing a complete KIR family cDNA panel were fixed and blocked with buffer containing PBS/0.5% BSA and incubated for 1 hour at room temperature with individual KIR3DL3 mAb hybridoma supernatants at 1:5, 1:25 and 1:250 dilutions in PBS/0.1% BSA. Cell arrays were washed with PBS and incubated for 1 hour at room temperature in PBS/0.1% BSA containing AF647-conjugated goat anti-mouse IgG (H+L) (Life Technologies, A21235). Slides were washed with PBS, dried, and imaged for ZsGreen1 and AF647 fluorescence.
as §1, with “In Table 4, replicate” for “Replicate”, “the” for “a complete”, “panel (as in FIG. 1A, FIG. 2B, and FIG. 2C)” for “panel”

[2] = target: T2, KIR2DL2 (UniProt P43627 22-348, limits assumed); assay: HEK293 cell microarray
T2 construct: whole, on cells
Procedure: as §1
as §1, with “In Table 4, replicate” for “Replicate”, “the” for “a complete”, “panel (as in FIG. 1A, FIG. 2B, and FIG. 2C)” for “panel”

[3] = target: T3, KIR3DL2 (UniProt P43630 22-455, limits assumed); assay: HEK293 cell microarray
T3 construct: whole, on cells
Procedure: as §1
as §1, with “In Table 4, replicate” for “Replicate”, “the” for “a complete”, “panel (as in FIG. 1A, FIG. 2B, and FIG. 2C)” for “panel”

[4] = target: T4, KIR2DL5A (UniProt Q8N109 22-375, limits assumed); assay: HEK293 cell microarray
T4 construct: whole, on cells
Procedure: as §1
as §1, with “In Table 4, replicate” for “Replicate”, “the” for “a complete”, “panel (as in FIG. 1A, FIG. 2B, and FIG. 2C)” for “panel”

[5] = target: T5, KIR2DS3 (UniProt Q14952 22-304, limits assumed); assay: HEK293 cell microarray
T5 construct: whole, on cells
Procedure: as §1
as §1, with “In Table 4, replicate” for “Replicate”, “the” for “a complete”, “panel (as in FIG. 1A, FIG. 2B, and FIG. 2C)” for “panel”

[6] = target: T6, KIR2DL5B (UniProt Q8NHK3 22-375, limits assumed); assay: HEK293 cell microarray
T6 construct: whole, on cells
Procedure: as §1
as §1, with “In Table 4, replicate” for “Replicate”, “the” for “a complete”, “panel (as in FIG. 1A, FIG. 2B, and FIG. 2C)” for “panel”

[7] = target: T7, KIR3DS1 (UniProt Q14943 22-382, limits assumed); assay: HEK293 cell microarray
T7 construct: whole, on cells
Procedure: as §1
as §1, with “In Table 4, replicate” for “Replicate”, “the” for “a complete”, “panel (as in FIG. 1A, FIG. 2B, and FIG. 2C)” for “panel”

[8] = target: T8, KIR2DS5 (UniProt Q14953 22-304, limits assumed); assay: HEK293 cell microarray
T8 construct: whole, on cells
Procedure: as §1
as §1, with “In Table 4, replicate” for “Replicate”, “the” for “a complete”, “panel (as in FIG. 1A, FIG. 2B, and FIG. 2C)” for “panel”

[9] = target: T9, KIR2DL3 (UniProt P43628 22-341, limits assumed); assay: HEK293 cell microarray
T9 construct: whole, on cells
Procedure: as §1
as §1, with “In Table 4, replicate” for “Replicate”, “the” for “a complete”, “panel (as in FIG. 1A, FIG. 2B, and FIG. 2C)” for “panel”

[10] = target: T10, KIR2DL4 (UniProt Q99706 22-377, limits assumed); assay: HEK293 cell microarray
T10 construct: whole, on cells
Procedure: as §1
as §1, with “In Table 4, replicate” for “Replicate”, “the” for “a complete”, “panel (as in FIG. 1A, FIG. 2B, and FIG. 2C)” for “panel”

[11] = target: T11, KIR2DS2 (UniProt P43631 22-304, limits assumed); assay: HEK293 cell microarray
T11 construct: whole, on cells
Procedure: as §1
as §1, with “In Table 4, replicate” for “Replicate”, “the” for “a complete”, “panel (as in FIG. 1A, FIG. 2B, and FIG. 2C)” for “panel”

[12] = target: T12, KIR3DL1 (UniProt P43629 22-444, limits assumed); assay: HEK293 cell microarray
T12 construct: whole, on cells
Procedure: as §1
as §1, with “In Table 4, replicate” for “Replicate”, “the” for “a complete”, “panel (as in FIG. 1A, FIG. 2B, and FIG. 2C)” for “panel”

[13] = target: T13, KIR2DL1 (UniProt P43626 22-348, limits assumed); assay: HEK293 cell microarray
T13 construct: whole, on cells
Procedure: as §1
as §1, with “In Table 4, replicate” for “Replicate”, “the” for “a complete”, “panel (as in FIG. 1A, FIG. 2B, and FIG. 2C)” for “panel”

[14] = target: T14, Human KIR3DL3 (human, UniProt Q8N743 26-410); assay: cell-based or functional assay
[15] = target: T14, Human KIR3DL3; assay: flow cytometry, KIR3DL3-transfected 300.19 cells
[16] = target: T14, Human KIR3DL3; assay: flow cytometry; blockade of HHLA2-mIgG2a binding to KIR3DL3-transfected 300.19 cells
Procedure: (§2) The indicated concentrations of KIR3DL3 mAbs were pre-incubated with KIR3DL3 transfected 300.19 cells for 30 minutes at 4° C. […] EC50 and IC50 analysis were conducted using GraphPad Prism®.

[17] = target: T14, Human KIR3DL3; assay: flow cytometry; blockade of HHLA2-mIgG2a binding to KIR3DL3-transfected cells
Procedure: as §2

[18] = target: T14, Human KIR3DL3; assay: flow cytometry, KIR3DL3-transfected 300.19 cells; remark: listed apart in the source
[19] = target: T15, Human KIR3DL3, Sino Biological Cat#: 16055-H08H (human, UniProt Q8N743 26-322); assay: BLI (Octet RED96), antibody captured on the sensor, antigen in solution, 1:1 model
T15 construct: Bought soluble antigen; also called KIR3DL3 (Octet antigen)
Procedure: Binding experiments were performed on Octat Red af 25″° C. The human antibodies were loaded onto Anti-higG Fe Capture biosensors and the mouse antibodies were loaded onto Anti-migG Fe Capture biosensors both for 300 seconds. The ligand loaded sensors were dipped into a 3-fold series dilution (starting at 300 nad) of the antigens (PD-1 and KIR3DL3) for 240 seconds followed by dissociation for 400 seconds. Kinetic constanta were calculated using a monovalent (1:1) binding model Antigen: Haman PD1, Sino Biological Cat #: HPLC-10377-HOSH.

T7 sequence (Q14943 22-382 limits assumed): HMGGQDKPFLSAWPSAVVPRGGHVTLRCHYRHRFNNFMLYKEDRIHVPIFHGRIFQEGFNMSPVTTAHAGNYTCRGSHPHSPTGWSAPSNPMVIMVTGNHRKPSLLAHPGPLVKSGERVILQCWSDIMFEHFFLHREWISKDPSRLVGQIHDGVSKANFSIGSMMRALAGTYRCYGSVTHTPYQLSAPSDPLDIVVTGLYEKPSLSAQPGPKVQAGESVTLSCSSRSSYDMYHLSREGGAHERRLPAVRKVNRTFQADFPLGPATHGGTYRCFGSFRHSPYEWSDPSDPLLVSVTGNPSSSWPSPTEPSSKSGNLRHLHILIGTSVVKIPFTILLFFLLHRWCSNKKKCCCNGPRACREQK
T14 sequence (Q8N743 26-410 H321N limits assumed): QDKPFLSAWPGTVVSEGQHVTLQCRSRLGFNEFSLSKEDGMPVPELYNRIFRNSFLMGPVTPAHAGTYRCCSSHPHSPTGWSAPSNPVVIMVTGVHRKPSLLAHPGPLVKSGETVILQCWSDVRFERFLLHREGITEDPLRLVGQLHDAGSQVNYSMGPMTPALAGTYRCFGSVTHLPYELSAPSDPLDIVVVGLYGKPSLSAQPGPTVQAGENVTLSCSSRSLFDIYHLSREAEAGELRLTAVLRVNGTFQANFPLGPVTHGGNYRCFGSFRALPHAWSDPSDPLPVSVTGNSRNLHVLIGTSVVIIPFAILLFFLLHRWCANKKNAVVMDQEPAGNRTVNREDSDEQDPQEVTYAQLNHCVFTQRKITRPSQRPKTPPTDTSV
T5 sequence (Q14952 22-304 limits assumed): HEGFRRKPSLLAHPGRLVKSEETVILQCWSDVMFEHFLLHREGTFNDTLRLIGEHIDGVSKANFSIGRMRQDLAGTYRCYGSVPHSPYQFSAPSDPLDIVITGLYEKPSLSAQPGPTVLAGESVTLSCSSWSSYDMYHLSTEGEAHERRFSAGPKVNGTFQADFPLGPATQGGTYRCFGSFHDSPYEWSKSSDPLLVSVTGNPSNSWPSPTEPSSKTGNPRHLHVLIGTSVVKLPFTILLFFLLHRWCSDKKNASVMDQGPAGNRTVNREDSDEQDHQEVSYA
T8 sequence (Q14953 22-304 limits assumed): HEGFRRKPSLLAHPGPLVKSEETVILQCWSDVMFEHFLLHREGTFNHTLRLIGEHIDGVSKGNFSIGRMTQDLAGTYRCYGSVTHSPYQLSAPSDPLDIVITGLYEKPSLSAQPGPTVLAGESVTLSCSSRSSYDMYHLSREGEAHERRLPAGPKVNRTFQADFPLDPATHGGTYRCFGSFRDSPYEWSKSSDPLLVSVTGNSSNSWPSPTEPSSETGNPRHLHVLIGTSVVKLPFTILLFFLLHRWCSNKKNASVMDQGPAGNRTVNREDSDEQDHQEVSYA
T2 sequence (P43627 22-348 limits assumed): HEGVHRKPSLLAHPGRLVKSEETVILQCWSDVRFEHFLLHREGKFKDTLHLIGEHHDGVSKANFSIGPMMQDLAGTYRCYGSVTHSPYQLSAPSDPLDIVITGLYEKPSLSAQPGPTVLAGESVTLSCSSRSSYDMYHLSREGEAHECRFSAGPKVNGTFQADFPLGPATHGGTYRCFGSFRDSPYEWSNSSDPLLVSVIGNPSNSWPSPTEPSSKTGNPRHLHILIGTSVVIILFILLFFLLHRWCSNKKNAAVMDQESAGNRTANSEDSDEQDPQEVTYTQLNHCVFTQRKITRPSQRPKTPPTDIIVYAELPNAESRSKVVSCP
T13 sequence (P43626 22-348 limits assumed): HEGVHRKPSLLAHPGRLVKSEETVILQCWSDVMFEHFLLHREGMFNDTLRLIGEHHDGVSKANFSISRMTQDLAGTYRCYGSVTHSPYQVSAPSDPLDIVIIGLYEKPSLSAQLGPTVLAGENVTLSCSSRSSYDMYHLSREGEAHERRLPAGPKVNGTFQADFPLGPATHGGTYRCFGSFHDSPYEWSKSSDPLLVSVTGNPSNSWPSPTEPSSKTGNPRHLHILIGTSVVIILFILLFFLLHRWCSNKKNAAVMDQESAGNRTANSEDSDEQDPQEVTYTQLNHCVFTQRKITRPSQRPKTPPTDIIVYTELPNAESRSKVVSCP
T15 sequence (Q8N743 other isoform, or with tags, fused parts or gaps H08H H08H limits assumed): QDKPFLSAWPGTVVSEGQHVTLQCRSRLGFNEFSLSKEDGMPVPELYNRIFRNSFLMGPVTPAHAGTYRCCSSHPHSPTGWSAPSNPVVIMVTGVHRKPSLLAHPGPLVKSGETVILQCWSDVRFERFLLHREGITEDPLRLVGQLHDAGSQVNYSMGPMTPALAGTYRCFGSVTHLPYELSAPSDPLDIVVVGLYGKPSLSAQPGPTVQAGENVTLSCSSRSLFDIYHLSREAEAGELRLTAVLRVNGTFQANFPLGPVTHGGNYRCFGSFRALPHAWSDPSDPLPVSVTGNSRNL
T3 sequence (P43630 22-455 limits assumed): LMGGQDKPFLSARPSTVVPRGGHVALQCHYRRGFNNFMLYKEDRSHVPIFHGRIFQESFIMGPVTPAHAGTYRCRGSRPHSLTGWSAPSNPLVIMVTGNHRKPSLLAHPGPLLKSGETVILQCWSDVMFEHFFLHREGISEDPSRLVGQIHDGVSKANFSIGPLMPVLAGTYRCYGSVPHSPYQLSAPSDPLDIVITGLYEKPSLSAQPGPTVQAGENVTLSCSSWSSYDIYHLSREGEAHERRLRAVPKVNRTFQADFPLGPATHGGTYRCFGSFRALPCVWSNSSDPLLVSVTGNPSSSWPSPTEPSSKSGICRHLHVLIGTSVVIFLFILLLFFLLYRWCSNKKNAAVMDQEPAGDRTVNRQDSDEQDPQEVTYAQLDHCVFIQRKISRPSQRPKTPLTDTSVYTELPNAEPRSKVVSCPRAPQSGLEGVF
T11 sequence (P43631 22-304 limits assumed): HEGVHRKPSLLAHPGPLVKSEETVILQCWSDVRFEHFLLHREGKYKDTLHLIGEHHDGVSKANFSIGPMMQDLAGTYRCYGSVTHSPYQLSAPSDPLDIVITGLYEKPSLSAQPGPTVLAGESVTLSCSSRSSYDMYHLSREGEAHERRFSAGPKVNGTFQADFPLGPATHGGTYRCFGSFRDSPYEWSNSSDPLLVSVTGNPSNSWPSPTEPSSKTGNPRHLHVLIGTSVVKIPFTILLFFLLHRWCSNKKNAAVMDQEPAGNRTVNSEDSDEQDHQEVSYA
T9 sequence (P43628 22-341 limits assumed): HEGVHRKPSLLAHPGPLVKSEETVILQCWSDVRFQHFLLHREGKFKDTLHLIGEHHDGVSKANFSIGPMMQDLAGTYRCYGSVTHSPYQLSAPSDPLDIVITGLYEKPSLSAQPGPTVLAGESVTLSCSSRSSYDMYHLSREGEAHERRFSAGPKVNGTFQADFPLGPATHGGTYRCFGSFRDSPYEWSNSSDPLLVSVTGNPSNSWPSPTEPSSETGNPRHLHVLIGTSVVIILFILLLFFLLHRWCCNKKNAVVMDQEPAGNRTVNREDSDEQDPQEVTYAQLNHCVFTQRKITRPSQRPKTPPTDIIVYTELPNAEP
T10 sequence (Q99706 22-377 limits assumed): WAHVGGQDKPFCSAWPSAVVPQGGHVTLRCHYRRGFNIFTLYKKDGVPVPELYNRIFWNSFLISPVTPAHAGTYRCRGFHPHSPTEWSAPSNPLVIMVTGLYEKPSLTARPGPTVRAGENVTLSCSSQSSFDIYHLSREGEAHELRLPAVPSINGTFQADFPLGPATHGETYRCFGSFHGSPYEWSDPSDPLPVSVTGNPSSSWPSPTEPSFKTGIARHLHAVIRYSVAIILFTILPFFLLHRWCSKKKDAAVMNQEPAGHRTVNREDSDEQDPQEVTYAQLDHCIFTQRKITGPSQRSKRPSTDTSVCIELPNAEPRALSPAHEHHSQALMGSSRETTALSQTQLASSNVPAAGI
T1 sequence (Q14954 22-304 limits assumed): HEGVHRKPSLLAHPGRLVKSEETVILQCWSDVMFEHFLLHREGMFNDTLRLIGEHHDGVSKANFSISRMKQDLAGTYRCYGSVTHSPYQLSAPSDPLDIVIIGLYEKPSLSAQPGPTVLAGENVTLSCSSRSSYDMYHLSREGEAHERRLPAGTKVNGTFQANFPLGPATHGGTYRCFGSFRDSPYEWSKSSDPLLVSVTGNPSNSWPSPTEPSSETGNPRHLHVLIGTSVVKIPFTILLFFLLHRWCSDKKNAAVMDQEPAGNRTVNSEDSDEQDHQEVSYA
T12 sequence (P43629 22-444 limits assumed): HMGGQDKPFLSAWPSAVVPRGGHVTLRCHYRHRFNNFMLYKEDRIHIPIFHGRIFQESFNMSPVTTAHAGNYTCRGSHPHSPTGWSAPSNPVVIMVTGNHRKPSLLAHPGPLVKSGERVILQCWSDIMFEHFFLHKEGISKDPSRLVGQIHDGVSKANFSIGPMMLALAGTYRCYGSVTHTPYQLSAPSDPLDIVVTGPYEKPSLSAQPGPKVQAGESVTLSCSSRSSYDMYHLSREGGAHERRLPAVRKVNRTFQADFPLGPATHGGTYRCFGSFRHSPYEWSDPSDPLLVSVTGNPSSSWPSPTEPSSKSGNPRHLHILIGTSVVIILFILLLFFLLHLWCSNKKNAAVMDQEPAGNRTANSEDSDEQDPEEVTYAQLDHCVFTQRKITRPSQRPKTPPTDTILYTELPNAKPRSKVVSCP
T6 sequence (Q8NHK3 22-375 limits assumed): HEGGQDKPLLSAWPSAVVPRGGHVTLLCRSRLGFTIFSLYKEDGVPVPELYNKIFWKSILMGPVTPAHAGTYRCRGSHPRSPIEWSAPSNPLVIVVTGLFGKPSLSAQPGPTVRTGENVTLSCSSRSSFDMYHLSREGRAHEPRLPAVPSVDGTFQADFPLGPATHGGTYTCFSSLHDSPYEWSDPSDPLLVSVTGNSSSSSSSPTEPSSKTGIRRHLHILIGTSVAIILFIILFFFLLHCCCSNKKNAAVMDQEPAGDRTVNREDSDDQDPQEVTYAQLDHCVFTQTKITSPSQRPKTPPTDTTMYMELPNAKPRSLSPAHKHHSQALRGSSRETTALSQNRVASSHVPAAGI
T4 sequence (Q8N109 22-375 limits assumed): as the sequence (Q8NHK3 22-375 limits assumed) above, with D152N, S174G counted along it

Binder	Jurkat IL-2 Luciferase Activation, EC50 [14] [µg/mL]	Jurkat IL-2 Luciferase, Fold Activation [14] [fold]	Kd [15] [µg/mL]	IC50 [16] [µg/mL]	binding result [1]	binding result [2]	binding result [3]	binding result [5]	binding result [6]	binding result [7]	binding result [8]	binding result [9]	binding result [10]	binding result [11]	binding result [12]	binding result [13]	other results
KIR3DL3 mAb 574.2.1C7.D2.6.5 (antibody, IgG1, V domains shown, Mouse hybridoma antibody, IgG1; only variable domains given; also called AVS-3698) VH: QVQLQQSGAELMKPGASVKISCKATGYTFSNYWIEWIKQRPGHGLEWIGEILPGSGSTNYNEKFKGKATFTAATSSNTAYMQLSSLTSEDSAVYYCARRVPDYYGSRYYFDYWGQGTTLTVSS VL: NIVMTQSPKSMSMSVGERVTLSCKASENVGIYVSWYQQKPEQSPKLLIYGASNRYTGVPDRFTGSGSATDFTLTISSVQAEDLADYHCGQSYNYPFTFGSGTKLEIK	77	8.2	0.77	0.32	no binding (tested: supernatant 1:5, 1:25, 1:250)	no binding (tested: supernatant 1:5, 1:25, 1:250)	no binding (tested: supernatant 1:5, 1:25, 1:250)	no binding (tested: supernatant 1:5, 1:25, 1:250)	no binding (tested: supernatant 1:5, 1:25, 1:250)	no binding (tested: supernatant 1:5, 1:25, 1:250)	no binding (tested: supernatant 1:5, 1:25, 1:250)	no binding (tested: supernatant 1:5, 1:25, 1:250)	no binding (tested: supernatant 1:5, 1:25, 1:250)	no binding (tested: supernatant 1:5, 1:25, 1:250)	no binding (tested: supernatant 1:5, 1:25, 1:250)	no binding (tested: supernatant 1:5, 1:25, 1:250)	binding result [4]: no binding (tested: supernatant 1:5, 1:25, 1:250)
KIR3DL3 mAb 574.2.2D8.6.9 (antibody, IgG2b, V domains shown, Mouse hybridoma antibody, IgG2b; also called AVS-3702) VH: DVQLVESGGGLVQPGGSRKLSCAASGFTFSYFGMHWVRRAPEKGLEWVAFISSDSTTIYYTDTVKGRFTISRDNPKNTLFLQMTSLRSEDTAIYYCARFYDGAMDYWGQGTSVTVST VL: DIVMTQSQKFMSTSVGDRVSITCKASQSVRTAVAWYQQKPGQSPKVLIYLASNRHTGVPDRFTGSGSGTDFTLTISNVQSEDLADYFCLQHWNYPLTFGAGTKLELK	1.3	14.9	0.46	0.21	no binding (tested: supernatant 1:5, 1:25, 1:250)	no binding (tested: supernatant 1:5, 1:25, 1:250)	no binding (tested: supernatant 1:5, 1:25, 1:250)	no binding (tested: supernatant 1:5, 1:25, 1:250)	no binding (tested: supernatant 1:5, 1:25, 1:250)	no binding (tested: supernatant 1:5, 1:25, 1:250)	no binding (tested: supernatant 1:5, 1:25, 1:250)	no binding (tested: supernatant 1:5, 1:25, 1:250)	no binding (tested: supernatant 1:5, 1:25, 1:250)	no binding (tested: supernatant 1:5, 1:25, 1:250)	no binding (tested: supernatant 1:5, 1:25, 1:250)	no binding (tested: supernatant 1:5, 1:25, 1:250)	

The next lines start with results.

Jurkat IL-2 Luciferase Activation, EC50 [14] [µg/mL]	Jurkat IL-2 Luciferase, Fold Activation [14] [fold]	Kd [15] [µg/mL]	IC50 [16] [µg/mL]	Binder	binding result [1]	binding result [2]	binding result [3]	binding result [5]	binding result [6]	binding result [7]	binding result [8]	binding result [9]	binding result [10]	binding result [11]	binding result [12]	binding result [13]	other results
1.25	17.1	0.43	0.16	KIR3DL3 mAb 574.2.2F11.2.7.4 (antibody, IgG2b, V domains shown, Parental mouse hybridoma antibody, IgG2b; only variable domains given; also called AVS-3703) VH: DVQLVESGGGLVQPGGSRKLSCAASGFTFSYFGMHWVRRAPEKGLEWVAFISSDSTTIYYTDTVKGRFTISRDNPKNTLFLQMTSLRSEDTAIYYCARFYDGAMDYWGQGTSVTVST VL: DIVMTQSQKFMSTSVGDRVSITCKASQSVRTAVAWYQQKPGQSPKVLIYLASNRHTGVPDRFTGSGSGTDFTLTISNVQSEDLADYFCLQHWNYPLTFGAGTKLELK	no binding (tested: supernatant 1:5, 1:25, 1:250)	no binding (tested: supernatant 1:5, 1:25, 1:250)	no binding (tested: supernatant 1:5, 1:25, 1:250)	no binding (tested: supernatant 1:5, 1:25, 1:250)	no binding (tested: supernatant 1:5, 1:25, 1:250)	no binding (tested: supernatant 1:5, 1:25, 1:250)	no binding (tested: supernatant 1:5, 1:25, 1:250)	no binding (tested: supernatant 1:5, 1:25, 1:250)	no binding (tested: supernatant 1:5, 1:25, 1:250)	no binding (tested: supernatant 1:5, 1:25, 1:250)	no binding (tested: supernatant 1:5, 1:25, 1:250)	no binding (tested: supernatant 1:5, 1:25, 1:250)	IC50 [17]: 0.42 µg/mL; EC50 [18]: 0.43 µg/mL; Kd [19]: 0.506 nM; koff [19]: 0.000118 s⁻¹; kon [19]: 233000 M⁻¹ s⁻¹
1.79	16.2	0.42	0.19	KIR3DL3 mAb 574.2.2H1.11.6 (antibody, IgG2b, V domains shown, Mouse hybridoma antibody, IgG2b; only variable domains given; also called AVS-3704) VH: DVQLVESGGGLVQPGGSRKLSCAASGFTFSYFGMHWVRRAPEKGLEWVAFISSDSTTIYYTDTVKGRFTISRDNPKNTLFLQMTSLRSEDTAIYYCARFYDGAMDYWGQGTSVTVST VL: DIVMTQSQKFMSTSVGDRVSITCKASQSVRTAVAWYQQKPGQSPKVLIYLASNRHTGVPDRFTGSGSGTDFTLTISNVQSEDLADYFCLQHWNYPLTFGAGTKLELK	no binding (tested: supernatant 1:5, 1:25, 1:250)	no binding (tested: supernatant 1:5, 1:25, 1:250)	no binding (tested: supernatant 1:5, 1:25, 1:250)	no binding (tested: supernatant 1:5, 1:25, 1:250)	no binding (tested: supernatant 1:5, 1:25, 1:250)	no binding (tested: supernatant 1:5, 1:25, 1:250)	no binding (tested: supernatant 1:5, 1:25, 1:250)	no binding (tested: supernatant 1:5, 1:25, 1:250)	no binding (tested: supernatant 1:5, 1:25, 1:250)	no binding (tested: supernatant 1:5, 1:25, 1:250)	no binding (tested: supernatant 1:5, 1:25, 1:250)	no binding (tested: supernatant 1:5, 1:25, 1:250)	

Reference: patent publication US20250388702A1 (Dana-Farber, published 2025)
